The results in this text go back to patent US20230356187A1 (AMICOGEN, published 2023).

Test [1] deals with T1, IgG(f) protein (Herceptin scFv).
T1 construct: Polypeptide of the human IgG1-based scFv region (GenBank AWW43726); Expressed from pET29a(+) (NdeI/XhoI) in E. coli and purified on Ni-NTA resin; also called recombinant immunoglobulin G fragment
The test is described as follows: binder coupled to NHS-Sepharose in 96-well filter plate; bound IgG(f) eluted at pH 2.5 and read at OD280, before and after 0.3 M NaOH.

The target is the same in test [2]. Kind of test: binder coupled to NHS-Sepharose in 96-well filter plate; bound IgG(f) eluted and read at OD280 after 0.3 M NaOH.
The target is the same in test [3]. The test is described as follows: binder coupled to NHS-Sepharose in 96-well filter plate; bound IgG(f) eluted and read at OD280 after 0.3 M NaOH; reference set to 100%.
Test [4] shares this target. Kind of test: binder coupled to NHS-Sepharose; bound IgG(f) eluted and read at OD280; relative to 0 h (100%), after 5 h in 0.3 M NaOH; reference wB3. As for the experimental part:
The library prepared in Example 5 was purified by the same manner as in Examples <1-3>, and the absorbance over time was measured by the same method as in Example 3 to compare the alkali tolerance. The absorbance over time obtained is shown in FIG. 5 as a relative value to the absorbance (100%) at the beginning (0 h).

T1 sequence (scFv, as listed by the source): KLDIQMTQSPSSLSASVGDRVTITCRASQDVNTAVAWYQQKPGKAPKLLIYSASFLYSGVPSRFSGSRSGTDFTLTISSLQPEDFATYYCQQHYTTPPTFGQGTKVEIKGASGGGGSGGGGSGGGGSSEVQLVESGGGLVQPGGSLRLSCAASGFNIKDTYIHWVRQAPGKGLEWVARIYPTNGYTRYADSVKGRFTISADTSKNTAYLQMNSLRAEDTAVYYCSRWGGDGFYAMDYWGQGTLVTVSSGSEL

B1: Wild-type Protein L B3 domain (other)
chain: MPKEEVTIKANLIYADGKTQTAEFKGTFEEATAEAYRYADLLAKENGKYTVDVADKGYTLNIKFAGKEKTPEE
notes: also called wB3; wild-type B3 domain; not shown: 6xHis tag
Regarding B1, in test [1], the binding result is reported as “binds”.

B2: Protein L B3 domain variant BEP4(E28G/N60E) (designed binder)
chain: MPKEEVTIKANLIYADGKTQTAEFKGTFGEATAEAYRYADLLAKENGKYTVDVADKGYTLEIKFAGKEKTPEE
notes: not shown: 6xHis tag
With B2, the binding result in test [2] is on record as “binds”.

B3: Protein L B3 domain variant EPS4(E28G/K43E) (designed binder)
chain: MPKEEVTIKANLIYADGKTQTAEFKGTFGEATAEAYRYADLLAEENGKYTVDVADKGYTLNIKFAGKEKTPEE
notes: not shown: 6xHis tag
For the molecule B3, the binding result in test [2] is “binds”.

B4: Protein L B3 domain variant BEP2(E28G/K43P) (designed binder)
chain: MPKEEVTIKANLIYADGKTQTAEFKGTFGEATAEAYRYADLLAPENGKYTVDVADKGYTLNIKFAGKEKTPEE
notes: not shown: 6xHis tag
Consider B4, for which the binding result in test [2] was “binds”.

B5: Protein L B3 domain variant EPS6(E28G/N60F) (designed binder)
chain: MPKEEVTIKANLIYADGKTQTAEFKGTFGEATAEAYRYADLLAKENGKYTVDVADKGYTLFIKFAGKEKTPEE
notes: not shown: 6xHis tag
As for B5, in test [2], the binding result was “binds”.

B6: Protein L B3 domain variant EPS5(E28G/D51T) (designed binder)
chain: MPKEEVTIKANLIYADGKTQTAEFKGTFGEATAEAYRYADLLAKENGKYTVTVADKGYTLNIKFAGKEKTPEE
notes: not shown: 6xHis tag
On to B6, for which the binding result in test [2] is recorded as “binds”.

B7: Protein L B3 domain variant EP1(E28A) (designed binder)
chain: MPKEEVTIKANLIYADGKTQTAEFKGTFAEATAEAYRYADLLAKENGKYTVDVADKGYTLNIKFAGKEKTPEE
notes: not shown: 6xHis tag
With B7, the binding result in test [1] is on record as “binds”.

B8: Protein L B3 domain variant BEP3(E28G/D51V) (designed binder)
chain: MPKEEVTIKANLIYADGKTQTAEFKGTFGEATAEAYRYADLLAKENGKYTVVVADKGYTLNIKFAGKEKTPEE
notes: not shown: 6xHis tag
B8: the binding result in test [2] is on record as “binds”.

B9: Protein L B3 domain variant EPS2(E28P) (designed binder)
chain: MPKEEVTIKANLIYADGKTQTAEFKGTFPEATAEAYRYADLLAKENGKYTVDVADKGYTLNIKFAGKEKTPEE
notes: not shown: 6xHis tag
As for B9, in test [2], the binding result is on record as “binds”.

B10: Protein L B3 domain variant EPS3(E28W) (designed binder)
chain: MPKEEVTIKANLIYADGKTQTAEFKGTFWEATAEAYRYADLLAKENGKYTVDVADKGYTLNIKFAGKEKTPEE
notes: not shown: 6xHis tag
Consider B10, for which the binding result in test [2] is reported as “binds”.

B11: Protein L B3 domain variant BEP1(E28G/Y13F) (designed binder)
chain: MPKEEVTIKANLIFADGKTQTAEFKGTFGEATAEAYRYADLLAKENGKYTVDVADKGYTLNIKFAGKEKTPEE
notes: not shown: 6xHis tag
With B11, the binding result in test [2] was “binds”.

B12: Protein L B3 domain variant EP2(E28G) (designed binder)
chain: MPKEEVTIKANLIYADGKTQTAEFKGTFGEATAEAYRYADLLAKENGKYTVDVADKGYTLNIKFAGKEKTPEE
notes: not shown: 6xHis tag
Regarding B12, in test [3], the binding result is recorded as “binds”.

B13: Protein L B3 domain variant EPS1(E28L) (designed binder)
chain: MPKEEVTIKANLIYADGKTQTAEFKGTFLEATAEAYRYADLLAKENGKYTVDVADKGYTLNIKFAGKEKTPEE
notes: not shown: 6xHis tag
B13: the binding result in test [2] was “binds”.

B14: Protein L B3 domain variant mBF4 (Y13F/E28G/K43P) (designed binder)
chain: MPKEEVTIKANLIFADGKTQTAEFKGTFGEATAEAYRYADLLAPENGKYTVDVADKGYTLNIKFAGKEKTPEE
notes: also called mBF monomer; not shown: 6xHis tag
In the case of B14, the “fold increase in alkali tolerance (residual scFv binding activity after 5 hours in 0.3 M NaOH) compared to wB3” value in test [4] is approximately 2.7 fold.
